Data published in the supplement of paper PMC10567573.

B1: CLCN6 (parent)
chain: MAGCRGSLCCCCRWCCCCGERETR

Variants of: B1
Assay: protein stability index of a GFP-peptide fusion (GPS, HEK-293T) (PSI 1-6); higher = more stable
Conditions: c terminus: a fixed tail appended
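Also: lentivirally expressed fusions sorted by FACS into six bins by GFP to DsRed ratio, PSI derived from sequencing read proportions per bin multiplied by bin number.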

| Variant | protein stability index |
| --- | --- |
| MAGCRGSLCACCRWCCCCGERETR [C10A] | 1.42 |
| MAGCRGSLCDCCRWCCCCGERETR [C10D] | 1.24 |
| MAGCRGSLCFCCRWCCCCGERETR [C10F] | 1.36 |
| MAGCRGSLCHCCRWCCCCGERETR [C10H] | 1.69 |
| MAGCRGSLCICCRWCCCCGERETR [C10I] | 1.79 |
| MAGCRGSLCKCCRWCCCCGERETR [C10K] | 2.07 |
| MAGCRGSLCMCCRWCCCCGERETR [C10M] | 1.28 |
| MAGCRGSLCNCCRWCCCCGERETR [C10N] | 1.7 |
| MAGCRGSLCPCCRWCCCCGERETR [C10P] | 1.45 |
| MAGCRGSLCQCCRWCCCCGERETR [C10Q] | 1.54 |
| MAGCRGSLCTCCRWCCCCGERETR [C10T] | 3.66 |
| MAGCRGSLCWCCRWCCCCGERETR [C10W] | 1.69 |
| MAGCRGSLCYCCRWCCCCGERETR [C10Y] | 1.88 |
| MAGCRGSLCCACRWCCCCGERETR [C11A] | 2.42 |
| MAGCRGSLCCDCRWCCCCGERETR [C11D] | 2.23 |
| MAGCRGSLCCECRWCCCCGERETR [C11E] | 2.27 |
| MAGCRGSLCCFCRWCCCCGERETR [C11F] | 2.72 |
| MAGCRGSLCCGCRWCCCCGERETR [C11G] | 3.4 |
| MAGCRGSLCCHCRWCCCCGERETR [C11H] | 1.3 |
| MAGCRGSLCCICRWCCCCGERETR [C11I] | 1.68 |
| MAGCRGSLCCKCRWCCCCGERETR [C11K] | 1.17 |
| MAGCRGSLCCLCRWCCCCGERETR [C11L] | 3.23 |
| MAGCRGSLCCMCRWCCCCGERETR [C11M] | 1.84 |
| MAGCRGSLCCNCRWCCCCGERETR [C11N] | 2.15 |

| Variant | protein stability index |
| --- | --- |
| MAGCRGSLCCQCRWCCCCGERETR [C11Q] | 1.9 |
| MAGCRGSLCCRCRWCCCCGERETR [C11R] | 1.97 |
| MAGCRGSLCCSCRWCCCCGERETR [C11S] | 1.77 |
| MAGCRGSLCCTCRWCCCCGERETR [C11T] | 2.24 |
| MAGCRGSLCCVCRWCCCCGERETR [C11V] | 1.41 |
| MAGCRGSLCCWCRWCCCCGERETR [C11W] | 2.26 |
| MAGCRGSLCCYCRWCCCCGERETR [C11Y] | 2 |
| MAGCRGSLCCCDRWCCCCGERETR [C12D] | 2.35 |
| MAGCRGSLCCCFRWCCCCGERETR [C12F] | 3.72 |
| MAGCRGSLCCCGRWCCCCGERETR [C12G] | 3.2 |
| MAGCRGSLCCCHRWCCCCGERETR [C12H] | 1.52 |
| MAGCRGSLCCCIRWCCCCGERETR [C12I] | 2.88 |
| MAGCRGSLCCCKRWCCCCGERETR [C12K] | 1.89 |
| MAGCRGSLCCCLRWCCCCGERETR [C12L] | 2.86 |
| MAGCRGSLCCCMRWCCCCGERETR [C12M] | 2.19 |
| MAGCRGSLCCCNRWCCCCGERETR [C12N] | 2.9 |
| MAGCRGSLCCCPRWCCCCGERETR [C12P] | 1.66 |
| MAGCRGSLCCCRRWCCCCGERETR [C12R] | 1.95 |
| MAGCRGSLCCCSRWCCCCGERETR [C12S] | 1.96 |
| MAGCRGSLCCCTRWCCCCGERETR [C12T] | 2.59 |
| MAGCRGSLCCCVRWCCCCGERETR [C12V] | 1.94 |
| MAGCRGSLCCCYRWCCCCGERETR [C12Y] | 2.23 |
| MAGCRGSLCCCCAWCCCCGERETR [R13A] | 2.01 |
| MAGCRGSLCCCCCWCCCCGERETR [R13C] | 2.02 |

| Variant | protein stability index |
| --- | --- |
| MAGCRGSLCCCCEWCCCCGERETR [R13E] | 2.4 |
| MAGCRGSLCCCCFWCCCCGERETR [R13F] | 2.78 |
| MAGCRGSLCCCCGWCCCCGERETR [R13G] | 2.27 |
| MAGCRGSLCCCCHWCCCCGERETR [R13H] | 2.06 |
| MAGCRGSLCCCCIWCCCCGERETR [R13I] | 1.3 |
| MAGCRGSLCCCCKWCCCCGERETR [R13K] | 1.1 |
| MAGCRGSLCCCCLWCCCCGERETR [R13L] | 2.4 |
| MAGCRGSLCCCCMWCCCCGERETR [R13M] | 2.13 |
| MAGCRGSLCCCCNWCCCCGERETR [R13N] | 2.4 |
| MAGCRGSLCCCCPWCCCCGERETR [R13P] | 1.76 |
| MAGCRGSLCCCCQWCCCCGERETR [R13Q] | 1.79 |
| MAGCRGSLCCCCSWCCCCGERETR [R13S] | 1.94 |
| MAGCRGSLCCCCTWCCCCGERETR [R13T] | 1.95 |
| MAGCRGSLCCCCVWCCCCGERETR [R13V] | 1.78 |
| MAGCRGSLCCCCWWCCCCGERETR [R13W] | 3.64 |
| MAGCRGSLCCCCYWCCCCGERETR [R13Y] | 2.57 |
| MAGCRGSLCCCCRACCCCGERETR [W14A] | 1.89 |
| MAGCRGSLCCCCRCCCCCGERETR [W14C] | 1.53 |
| MAGCRGSLCCCCRECCCCGERETR [W14E] | 2.08 |
| MAGCRGSLCCCCRFCCCCGERETR [W14F] | 1.95 |
| MAGCRGSLCCCCRGCCCCGERETR [W14G] | 2.23 |
| MAGCRGSLCCCCRHCCCCGERETR [W14H] | 2.06 |
| MAGCRGSLCCCCRKCCCCGERETR [W14K] | 2.32 |
| MAGCRGSLCCCCRLCCCCGERETR [W14L] | 3.15 |

| Variant | protein stability index |
| --- | --- |
| MAGCRGSLCCCCRMCCCCGERETR [W14M] | 1.14 |
| MAGCRGSLCCCCRNCCCCGERETR [W14N] | 2.06 |
| MAGCRGSLCCCCRPCCCCGERETR [W14P] | 2.33 |
| MAGCRGSLCCCCRQCCCCGERETR [W14Q] | 2.47 |
| MAGCRGSLCCCCRRCCCCGERETR [W14R] | 2.22 |
| MAGCRGSLCCCCRTCCCCGERETR [W14T] | 3.2 |
| MAGCRGSLCCCCRYCCCCGERETR [W14Y] | 1.55 |
| MAGCRGSLCCCCRWACCCGERETR [C15A] | 1.97 |
| MAGCRGSLCCCCRWDCCCGERETR [C15D] | 1.71 |
| MAGCRGSLCCCCRWFCCCGERETR [C15F] | 2.99 |
| MAGCRGSLCCCCRWGCCCGERETR [C15G] | 2.04 |
| MAGCRGSLCCCCRWHCCCGERETR [C15H] | 2.6 |
| MAGCRGSLCCCCRWICCCGERETR [C15I] | 1.87 |
| MAGCRGSLCCCCRWKCCCGERETR [C15K] | 1.82 |
| MAGCRGSLCCCCRWLCCCGERETR [C15L] | 2.74 |
| MAGCRGSLCCCCRWMCCCGERETR [C15M] | 1.65 |
| MAGCRGSLCCCCRWNCCCGERETR [C15N] | 1.76 |
| MAGCRGSLCCCCRWPCCCGERETR [C15P] | 1.5 |
| MAGCRGSLCCCCRWQCCCGERETR [C15Q] | 2.39 |
| MAGCRGSLCCCCRWSCCCGERETR [C15S] | 2 |
| MAGCRGSLCCCCRWVCCCGERETR [C15V] | 2.08 |
| MAGCRGSLCCCCRWYCCCGERETR [C15Y] | 1.36 |
